In patent EP1682577B1:
One block for each substance: values may come before it.

How the values were obtained:
Experiment in all cases: cell-based or functional assay
[1] = biological target: CRHR1 (UniProt P34998)
[2] = biological target: Vasoactive Intestinal Peptide 1 receptor (UniProt P32241)
[3] = biological target: Melanocortin 5 receptor (UniProt P33032)
[4] = biological target: Melanocortin 1 receptor (UniProt Q01726)
Melanocortin 1 receptor, sequence (Q01726 whole entry): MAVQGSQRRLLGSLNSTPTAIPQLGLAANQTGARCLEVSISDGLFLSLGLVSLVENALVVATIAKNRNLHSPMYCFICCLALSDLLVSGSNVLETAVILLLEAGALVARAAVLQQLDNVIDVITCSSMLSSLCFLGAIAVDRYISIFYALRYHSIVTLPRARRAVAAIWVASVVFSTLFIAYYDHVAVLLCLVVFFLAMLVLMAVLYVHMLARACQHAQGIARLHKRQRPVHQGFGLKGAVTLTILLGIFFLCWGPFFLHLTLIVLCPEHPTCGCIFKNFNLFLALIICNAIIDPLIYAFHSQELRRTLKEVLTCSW

CRHR1, sequence (P34998 24-415 limits assumed): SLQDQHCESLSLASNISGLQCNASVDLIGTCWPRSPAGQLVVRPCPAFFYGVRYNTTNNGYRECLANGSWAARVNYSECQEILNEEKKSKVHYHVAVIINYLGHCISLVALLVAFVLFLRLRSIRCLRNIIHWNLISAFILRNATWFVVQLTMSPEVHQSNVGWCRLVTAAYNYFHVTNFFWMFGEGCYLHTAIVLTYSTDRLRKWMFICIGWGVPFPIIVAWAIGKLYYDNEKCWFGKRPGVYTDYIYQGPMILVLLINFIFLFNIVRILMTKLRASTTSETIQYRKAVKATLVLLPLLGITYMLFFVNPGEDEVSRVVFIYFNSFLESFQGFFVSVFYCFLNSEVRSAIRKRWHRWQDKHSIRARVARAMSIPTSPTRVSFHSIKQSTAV
Melanocortin 5 receptor, sequence (P33032 whole entry): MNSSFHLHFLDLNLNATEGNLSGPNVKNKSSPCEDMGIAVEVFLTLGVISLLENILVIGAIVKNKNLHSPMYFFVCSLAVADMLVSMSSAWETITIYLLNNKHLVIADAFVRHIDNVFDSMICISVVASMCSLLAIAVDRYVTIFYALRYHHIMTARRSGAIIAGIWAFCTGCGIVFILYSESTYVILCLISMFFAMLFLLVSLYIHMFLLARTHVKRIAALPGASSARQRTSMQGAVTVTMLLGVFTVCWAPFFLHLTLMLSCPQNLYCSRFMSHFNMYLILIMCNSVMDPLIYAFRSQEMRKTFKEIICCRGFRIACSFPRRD
Vasoactive Intestinal Peptide 1 receptor, sequence (P32241 31-457): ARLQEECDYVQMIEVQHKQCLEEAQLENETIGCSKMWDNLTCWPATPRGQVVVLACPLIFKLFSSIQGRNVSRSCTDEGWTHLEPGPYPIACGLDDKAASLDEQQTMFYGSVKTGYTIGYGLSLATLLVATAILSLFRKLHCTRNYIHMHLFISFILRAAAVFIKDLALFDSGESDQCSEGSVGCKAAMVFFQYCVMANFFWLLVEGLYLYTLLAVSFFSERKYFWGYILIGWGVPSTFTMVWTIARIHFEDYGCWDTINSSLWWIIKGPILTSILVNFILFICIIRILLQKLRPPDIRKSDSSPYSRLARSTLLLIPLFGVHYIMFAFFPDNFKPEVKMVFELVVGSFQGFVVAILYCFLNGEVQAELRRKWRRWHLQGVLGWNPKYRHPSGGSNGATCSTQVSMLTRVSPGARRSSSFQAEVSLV

EC50 of cell response (MDC dye) [1]: 0.028 nM | EC50 of cell response (NY & H30602) [1]: 0.028 nM | Fmax/ Fb (MDC dye) [1]: 4.2 | Fmax/ Fb (NY & H30602) [1]: 4.3
Substance: CRF (from UniProt P06850 154-194) (peptide)

EC50 of cell response (MDC dye) [2]: 0.0024 nM | EC50 of cell response (TB & H30602) [2]: 0.005 nM | Fmax/ Fb (MDC dye) [2]: 4.9 | Fmax/ Fb (TB & H30602) [2]: 5
Substance: VIP (from UniProt P01282 125-152) (peptide)

EC50 of cell response (MDC dye) [3]: 2900 nM | EC50 of cell response (NR& H30602) [3]: 1300 nM | EC50 of cell response (NY & H30602) [3]: 950 nM | Fmax/ Fb (MDC dye) [3]: 3.6 | Fmax/ Fb (NR& H30602) [3]: 3.2 | Fmax/ Fb (NY & H30602) [3]: 3.4
Substance: [Nle4-D-Phe7]α-MSH (from UniProt P01189 138-150) (peptide)

EC50 of cell response (MDC dye) [4]: 820 nM | EC50 of cell response (TB & H30602) [4]: 770 nM | Fmax/ Fb (MDC dye) [4]: 5 | Fmax/ Fb (TB & H30602) [4]: 5.1
Substance: α-MSH (from UniProt P01189 138-150) (peptide)
